Where two headings read alike, the source gives them in different places.
Tests used:
[1] = target: human IL-23Rα/human IL-12Rβ1 on BaF3 transfectants (human, UniProt Q5VWK5 24-629; P42701 24-662); assay: cell-based or functional assay
human IL-17A homodimer [2] = target: T1, human IL-17A homodimer (human, UniProt Q16552 24-155); assay: cell-based or functional assay
[3] = target: T2, human IL-17A/F heterodimer (human, UniProt Q16552 24-155; Q96PD4 31-163); assay: cell-based or functional assay
human IL-17F homodimer [4] = target: T3, human IL-17F homodimer (human, UniProt Q96PD4 31-163); assay: cell-based or functional assay
T3 sequence: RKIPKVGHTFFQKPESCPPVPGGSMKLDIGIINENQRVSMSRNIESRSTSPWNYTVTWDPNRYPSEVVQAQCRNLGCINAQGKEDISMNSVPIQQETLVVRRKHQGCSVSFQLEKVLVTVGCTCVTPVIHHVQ

human IL-17A homodimer [5] = target: T1, human IL-17A homodimer; assay: cell-based or functional assay; remark: listed apart in the source
[6] = target: T2, human IL-17A/F heterodimer; assay: cell-based or functional assay; remark: listed apart in the source
human IL-17F homodimer [7] = target: T3, human IL-17F homodimer; assay: cell-based or functional assay; remark: listed apart in the source
human IL-17A homodimer [8] = target: T1, human IL-17A homodimer; assay: SPR Biacore T100, captured antibody, bivalent analyte model
Protocol: (§1) Binding kinetics and affinity studies were performed on a BIACORE® T100 system (GE Healthcare, Piscataway, N.J.). Methods for the BIACORE® T100 were programmed using BIACORE® T100 Control Software, v 2.0. For these experiments, the humanized anti-human IL-17A/F antibodies were captured onto a CM4 sensor chip via either goat anti-human IgG Fc-gamma antibody (Jackson ImmunoResearch, West Grove, Pa.) or goat anti-mouse IgG Fc-gamma antibody (Jackson ImmunoResearch). Binding experiments with the IL-17 molecules were performed at 25° C. in a buffer of 10 mM HEPES, 150 mM NaCl, 3 mM EDTA, 0.05% Surfactant P20 (GE Healthcare), 1 mg/mL bovine serum albumin, pH 7.4.
(§2) The capture antibody, goat anti-human IgG Fc-gamma, was diluted to concentration of 20 μg/mL in 10 mM sodium acetate pH 5.0, and then covalently immobilized to all four flow cells of a CM4 sensor chip using amine coupling chemistry (EDC:NHS). […] A capture antibody density of approximately 5000 RU was obtained. The humanized anti-human IL-17A/F antibodies were captured onto flow cell 2, 3, or 4 of the CM4 chip at a density ranging from 60-150 RU. Capture of the test antibodies to the immobilized surface was performed at a flow rate of 10 μL/min. The BIACORE® instrument measures the mass of protein bound to the sensor chip surface, and thus, capture of the test antibody was verified for each cycle. […] The serial dilutions were injected over the surface and allowed to specifically bind to the test antibody captured on the sensor chip. Duplicate injections of each antigen concentration were performed with an association time of 7 minutes and dissociation time of 15 minutes. Kinetic binding studies were performed with a flow rate of 50 μL/min. In between cycles, the flow cell was washed with 20 mM hydrochloric acid to regenerate the surface. This wash step removed both the captured test antibody and any bound antigen from the immobilized antibody surface. The test antibody was subsequently captured again in the next cycle.
(§3) Data was compiled using the BIACORE® T100 Evaluation software (version 2.0).

[9] = target: T2, human IL-17A/F heterodimer; assay: as above
Protocol: as §1, §2, §3

human IL-17F homodimer [10] = target: T3, human IL-17F homodimer; assay: as above
Protocol: as §1, §2, §3

Chain of human IL-23Rα/human IL-12Rβ1 on BaF3 transfectants (Q5VWK5 24-629, chain 1 of 2, other chains not shown): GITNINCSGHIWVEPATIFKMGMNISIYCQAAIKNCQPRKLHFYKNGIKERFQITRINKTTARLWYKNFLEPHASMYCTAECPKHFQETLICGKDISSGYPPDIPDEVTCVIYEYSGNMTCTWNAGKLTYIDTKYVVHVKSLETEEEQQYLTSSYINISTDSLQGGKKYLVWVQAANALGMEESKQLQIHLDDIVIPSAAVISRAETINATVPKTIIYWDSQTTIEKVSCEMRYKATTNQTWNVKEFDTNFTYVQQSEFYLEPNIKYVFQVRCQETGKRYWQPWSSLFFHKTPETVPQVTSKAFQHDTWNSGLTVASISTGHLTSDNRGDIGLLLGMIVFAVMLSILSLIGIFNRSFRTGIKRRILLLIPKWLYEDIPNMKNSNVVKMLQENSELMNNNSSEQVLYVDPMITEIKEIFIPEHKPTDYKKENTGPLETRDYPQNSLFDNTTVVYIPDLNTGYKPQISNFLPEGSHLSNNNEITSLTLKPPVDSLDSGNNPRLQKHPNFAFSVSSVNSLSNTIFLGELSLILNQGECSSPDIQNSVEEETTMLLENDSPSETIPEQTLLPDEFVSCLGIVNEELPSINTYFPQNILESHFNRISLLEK

Row | Binder | IC50, NIH/3T3/KZ170 NF-kB luciferase reporter (human IL-17A homodimer [5]) [nM] | IC50, NIH/3T3/KZ170 NF-kB luciferase reporter [6] [nM] | IC50, NIH/3T3/KZ170 NF-kB luciferase reporter (human IL-17F homodimer [7]) [nM] | also measured
1 | human IL-23 (IL-23p19/IL-12B heterodimer) (ligand) chain 1: RAVPGGSSPAWTQCQQLSQKLCTLAWSAHPLVGHMDLREEGDEETTNDVPHIQCGDGCDPQGLRDNSQFCLQRIHQGLIFYEKLLGSDIFTGEPSLLPDSPVGQLHASLLGLSQLLQPEGHHWETQQIPSLSPSQPWQRLLLRFKILRSLQAFVAVAARVFAHGAATLSP chain 2: IWELKKDVYVVELDWYPDAPGEMVVLTCDTPEEDGITWTLDQSSEVLGSGKTLTIQVKEFGDAGQYTCHKGGEVLSHSLLLLHKKEDGIWSTDILKDQKEPKNKTFLRCEAKNYSGRFTCWWLTTISTDLTFSVKSSRGSSDPQGVTCGAATLSAERVRGDNKEYEYSVECQEDSACPAAEESLPIEVMVDAVHKLKYENYTSSFFIRDIIKPDPPKNLQLKPLKNSRQVEVSWEYPDTWSTPHSYFSLTFCVQVQGKSKREKKDRVFTDKTSATVICRKNASISVRAQDRYYSSSWSEWASVPCS |  |  |  | EC50, STAT3 phosphorylation in Baf3/huIL-23Ra/huIL-12Rb1 transfectants [1]: 0.02 nM
2 | 339-33 (antibody, human IgG1, V domains shown) VH: QVQLVQSGAEVKKPGASVKVSCKASGYTFTEYTMHWVRQAPGQRLEWMGGINPNSGGVSYNQNFKGRVTITRDTSASTAYMELSSLRSEDTAVYYCARGGDGYYTNYFDIDYWGQGTTVTVSS VL: EIVLTQSPDFQSVTPKEKVTITCSASSSVNYMHWYQQKPDQSPKLLIKDTSKLASGVPSRFSGSGSGTDFTLTINSLEAEDAATYYCQQWNSHPLTFGQGTKLEIK |  |  |  | IC50, NIH/3T3/KZ170 NF-kB luciferase reporter (human IL-17A homodimer [2]): > 600 nM; IC50, NIH/3T3/KZ170 NF-kB luciferase reporter [3]: 9.7 nM; IC50, NIH/3T3/KZ170 NF-kB luciferase reporter (human IL-17F homodimer [4]): 1.7 nM
3 | 339-105 (antibody, human IgG1, V domains shown) VH: QVQLVQSGAEVKKPGASVKVSCKASGYTFTEYTMHWVRQAPGQRLEWMGGINPNSGGVSYNQNFKGRVTITRDTSSSTAYMELSSLRSEDTAVFYCARGGDGYYTNYFDIDYWGQGTTVTVSS VL: DIQMTQSPSSLSASVGDRVTITCSASSSVNYMHWYQQKPGKVPKLLIYDTSKLASGVPSRFSGSGSGTDFTLTISSLQPEDVATYYCQQWNSHPLTFGQGTKLEIK | > 600 | 23 | 2.6 | 
4 | 339-125 (antibody, human IgG1, V domains shown) VH: QVQLVQSGAEVKKPGASVKVSCKASGYTFNEYTMHWVKQSHGQRLEWMGGINPNSGGVSYNQNFKGKATLTVDTSASTAYMELSSLRSEDTAVYYCARGGDGYYTNYFDIDYWGQGTTVTVSS VL: DIQMTQSPSSLSASVGDRVTITCSASSSVNYMHWYQQKPGKVPKLLIYDTSKLASGVPSRFSGSGSGTDFTLTISSLQPEDVATYYCQQWNSHPLTFGQGTKLEIK | 1.5 | 0.81 | 0.83 | Kd (human IL-17A homodimer [8]): 1 nM; koff (human IL-17A homodimer [8]): 0.003 s⁻¹; kon (human IL-17A homodimer [8]): 2e+06 M⁻¹ s⁻¹; Kd [9]: 0.3 nM; koff [9]: 0.0006 s⁻¹; kon [9]: 2e+06 M⁻¹ s⁻¹; Kd (human IL-17F homodimer [10]): 0.1 nM; koff (human IL-17F homodimer [10]): 0.0002 s⁻¹; kon (human IL-17F homodimer [10]): 2e+06 M⁻¹ s⁻¹
5 | 339-126 (antibody, human IgG1, V domains shown) VH: QVQLVQSGAEVKKPGASVKVSCKASGYTFTEYTMHWVRQAPGQRLEWMGGINPNSGGVSYNQNFKGRVTITRDTSASTAYMELSSLRSEDTAVYYCARGGDGYYTNYFDIDYWGQGTTVTVSS VL: DIQMTQSPSSLSASVGDRVTITCSASSSVNYMHWYQQKPGKVPKLLIYDTSKLASGVPSRFSGSGSGTDFTLTISSLQPEDVATYYCQQWNSHPLTFGQGTKLEIK |  |  |  | IC50, NIH/3T3/KZ170 NF-kB luciferase reporter (human IL-17A homodimer [2]): > 600 nM; IC50, NIH/3T3/KZ170 NF-kB luciferase reporter [3]: 24 nM; IC50, NIH/3T3/KZ170 NF-kB luciferase reporter (human IL-17F homodimer [4]): 1.6 nM
6 | 339-37 (antibody, human IgG1, V domains shown) VH: QVQLVQSGAEVKKPGASVKVSCKASGYTFTEYTMHWVRQAPGQRLEWMGGINPNSGGVSYNQNFKGRVTITRDTSSSTAYMELSSLRSEDTAVFYCARGGDGYYTNYFDIDYWGQGTTVTVSS VL: EIVLTQSPDFQSVTPKEKVTITCSASSSVNYMHWYQQKPDQSPKLLIKDTSKLASGVPSRFSGSGSGTDFTLTINSLEAEDAATYYCQQWNSHPLTFGQGTKLEIK | > 600 | 20 | 3.5 | 
7 | 339-38 (antibody, human IgG1, V domains shown) VH: QVQLVQSGAEVKKPGASVKVSCKASGYTFNEYTMHWVKQSHGQRLEWMGGINPNSGGVSYNQNFKGKATLTVDTSASTAYMELSSLRSEDTAVYYCARGGDGYYTNYFDIDYWGQGTTVTVSS VL: EIVLTQSPDFQSVTPKEKVTITCSASSSVNYMHWYQQKPDQSPKLLIKDTSKLASGVPSRFSGSGSGTDFTLTINSLEAEDAATYYCQQWNSHPLTFGQGTKLEIK | 8.2 | 0.27 | 0.27 | Kd (human IL-17A homodimer [8]): 1 nM; koff (human IL-17A homodimer [8]): 0.005 s⁻¹; kon (human IL-17A homodimer [8]): 4e+06 M⁻¹ s⁻¹; Kd [9]: 0.4 nM; koff [9]: 0.0004 s⁻¹; kon [9]: 1e+06 M⁻¹ s⁻¹; Kd (human IL-17F homodimer [10]): 0.3 nM; koff (human IL-17F homodimer [10]): 0.0006 s⁻¹; kon (human IL-17F homodimer [10]): 2e+06 M⁻¹ s⁻¹
8 | 339-39 (antibody, human IgG1, V domains shown) VH: QVQLVQSGAEVKKPGASVKVSCKASGYTFNEYTMHWVKQSHGQRLEWMGGINPNSGGVSYNQNFKGKATLTVDTSSSTAYMELSSLRSEDTAVFYCARGGDGYYTNYFDIDYWGQGTTVTVSS VL: EIVLTQSPDFQSVTPKEKVTITCSASSSVNYMHWYQQKPDQSPKLLIKDTSKLASGVPSRFSGSGSGTDFTLTINSLEAEDAATYYCQQWNSHPLTFGQGTKLEIK | 7.6 | 0.23 | 0.25 | 
9 | 339-128 (antibody, human IgG1, V domains shown) VH: QVQLVQSGAEVKKPGASVKVSCKASGYTFTEYTMHWVRQAPGQRLEWMGGINPNSGGVSYNQNFKGKATLTVDTSASTAYMELSSLRSEDTAVYYCARGGDGYYTNYFDIDYWGQGTTVTVSS VL: DIQMTQSPSSLSASVGDRVTITCSASSSVNYMHWYQQKPGKVPKLLIYDTSKLASGVPSRFSGSGSGTDFTLTISSLQPEDVATYYCQQWNSHPLTFGQGTKLEIK | 5.1 | 0.41 | 0.25 | 
10 | 339-127 (antibody, human IgG1, V domains shown) VH: QVQLVQSGAEVKKPGASVKVSCKASGYTFNEYTMHWVKQSHGQRLEWMGGINPNSGGVSYNQNFKGRVTITRDTSASTAYMELSSLRSEDTAVYYCARGGDGYYTNYFDIDYWGQGTTVTVSS VL: DIQMTQSPSSLSASVGDRVTITCSASSSVNYMHWYQQKPGKVPKLLIYDTSKLASGVPSRFSGSGSGTDFTLTISSLQPEDVATYYCQQWNSHPLTFGQGTKLEIK | 190 | 3.4 | 0.5 | 
11 | 339-35 (antibody, human IgG1, V domains shown) VH: QVQLVQSGAEVKKPGASVKVSCKASGYTFNEYTMHWVKQSHGQRLEWMGGINPNSGGVSYNQNFKGRVTITRDTSASTAYMELSSLRSEDTAVYYCARGGDGYYTNYFDIDYWGQGTTVTVSS VL: EIVLTQSPDFQSVTPKEKVTITCSASSSVNYMHWYQQKPDQSPKLLIKDTSKLASGVPSRFSGSGSGTDFTLTINSLEAEDAATYYCQQWNSHPLTFGQGTKLEIK | > 600 | 2.4 | 0.64 | 
12 | 339-104 (antibody, human IgG1, V domains shown) VH: QVQLVQSGAEVKKPGASVKVSCKASGYTFNEYTMHWVKQSHGQRLEWMGGINPNSGGVSYNQNFKGKATLTVDTSSSTAYMELSSLRSEDTAVFYCARGGDGYYTNYFDIDYWGQGTTVTVSS VL: DIQMTQSPSSLSASVGDRVTITCSASSSVNYMHWYQQKPGKVPKLLIYDTSKLASGVPSRFSGSGSGTDFTLTISSLQPEDVATYYCQQWNSHPLTFGQGTKLEIK | 1.5 | 0.83 | 0.83 | 
13 | 339-71 (antibody, human IgG1, V domains shown) VH: QVQLVQSGAEVKKPGASVKVSCKASGYTFTEYTMHWVRQAPGQRLEWMGGINPNSGGVSYNQNFKGKATLTVDTSASTAYMELSSLRSEDTAVYYCARGGDGYYTNYFDIDYWGQGTTVTVSS VL: EIVLTQSPDFQSVTPKEKVTITCSASSSVNYMHWYQQKPDQSPKLLIKDTSKLASGVPSRFSGSGSGTDFTLTINSLEAEDAATYYCQQWNSHPLTFGQGTKLEIK | 16 | 0.37 | 0.2 | 

Reference: patent US20170275357A1 (Bristol-Myers Squibb, published 2017)
